In the supplement of paper PMC10065799, “High-throughput profiling of sequence recognition by tyrosine kinases and SH2 domains using bacterial peptide display” (eLife, 2023):

Experiments:
AncSZ = experiment: phosphorylation enrichment, bacterial display (enrichment ratio); higher = better substrate or ligand; peptides without Tyr show the background
EPHB1 = EPHB1 (UniProt P54762); experiment: as above
EPHB2 = EPHB2 (UniProt P29323); experiment: as above
FGFR1 = FGFR1 (UniProt P11362); experiment: as above
Chain of FGFR1 (P11362 whole entry, looked up): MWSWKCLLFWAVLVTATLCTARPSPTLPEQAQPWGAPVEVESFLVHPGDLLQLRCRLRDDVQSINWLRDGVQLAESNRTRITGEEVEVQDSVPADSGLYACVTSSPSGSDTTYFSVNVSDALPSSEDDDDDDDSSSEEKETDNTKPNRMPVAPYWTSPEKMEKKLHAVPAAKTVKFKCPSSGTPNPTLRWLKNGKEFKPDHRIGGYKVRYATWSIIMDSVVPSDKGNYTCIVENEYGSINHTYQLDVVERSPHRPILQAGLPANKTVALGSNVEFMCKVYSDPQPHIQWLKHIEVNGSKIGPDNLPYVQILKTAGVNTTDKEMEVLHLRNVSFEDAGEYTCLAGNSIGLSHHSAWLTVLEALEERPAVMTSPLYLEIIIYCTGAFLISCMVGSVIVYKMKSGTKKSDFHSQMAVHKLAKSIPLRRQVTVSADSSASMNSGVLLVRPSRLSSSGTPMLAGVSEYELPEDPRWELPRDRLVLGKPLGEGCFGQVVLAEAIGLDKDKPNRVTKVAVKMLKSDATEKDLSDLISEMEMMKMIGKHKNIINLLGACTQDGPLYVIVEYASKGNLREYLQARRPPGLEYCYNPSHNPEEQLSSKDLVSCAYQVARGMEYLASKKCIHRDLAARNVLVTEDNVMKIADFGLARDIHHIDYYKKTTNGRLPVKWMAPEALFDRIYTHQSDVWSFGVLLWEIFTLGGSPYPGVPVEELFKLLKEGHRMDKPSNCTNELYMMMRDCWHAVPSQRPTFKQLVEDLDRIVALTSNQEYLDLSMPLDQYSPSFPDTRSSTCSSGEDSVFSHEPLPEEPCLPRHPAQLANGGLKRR

FGFR3 = FGFR3 (UniProt P22607); experiment: as above
Chain of FGFR3 (P22607 whole entry, looked up): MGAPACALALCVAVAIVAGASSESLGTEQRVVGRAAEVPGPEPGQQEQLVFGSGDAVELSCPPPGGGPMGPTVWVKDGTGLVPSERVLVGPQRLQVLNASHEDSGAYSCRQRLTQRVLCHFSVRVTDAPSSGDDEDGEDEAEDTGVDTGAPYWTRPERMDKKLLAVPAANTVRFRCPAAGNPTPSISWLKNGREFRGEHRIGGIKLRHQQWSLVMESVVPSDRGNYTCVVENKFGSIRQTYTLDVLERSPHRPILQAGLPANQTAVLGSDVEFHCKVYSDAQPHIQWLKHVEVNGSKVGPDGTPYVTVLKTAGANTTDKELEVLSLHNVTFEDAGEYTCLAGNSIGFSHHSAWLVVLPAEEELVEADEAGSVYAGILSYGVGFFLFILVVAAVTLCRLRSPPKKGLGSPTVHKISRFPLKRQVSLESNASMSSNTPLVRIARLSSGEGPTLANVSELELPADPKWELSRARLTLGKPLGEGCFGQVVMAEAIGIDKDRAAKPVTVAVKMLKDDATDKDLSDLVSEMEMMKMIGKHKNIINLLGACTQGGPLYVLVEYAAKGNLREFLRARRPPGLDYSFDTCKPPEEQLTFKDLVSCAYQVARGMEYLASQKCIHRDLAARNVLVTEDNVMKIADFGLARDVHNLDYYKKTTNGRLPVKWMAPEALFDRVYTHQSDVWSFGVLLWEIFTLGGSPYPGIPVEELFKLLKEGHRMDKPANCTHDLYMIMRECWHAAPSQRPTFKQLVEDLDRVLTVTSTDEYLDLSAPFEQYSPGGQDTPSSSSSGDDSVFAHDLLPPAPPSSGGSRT

Fer (mouse) = experiment: as above
Fes = Fes (UniProt P07332); experiment: as above
Chain of Fes (P07332 whole entry, looked up): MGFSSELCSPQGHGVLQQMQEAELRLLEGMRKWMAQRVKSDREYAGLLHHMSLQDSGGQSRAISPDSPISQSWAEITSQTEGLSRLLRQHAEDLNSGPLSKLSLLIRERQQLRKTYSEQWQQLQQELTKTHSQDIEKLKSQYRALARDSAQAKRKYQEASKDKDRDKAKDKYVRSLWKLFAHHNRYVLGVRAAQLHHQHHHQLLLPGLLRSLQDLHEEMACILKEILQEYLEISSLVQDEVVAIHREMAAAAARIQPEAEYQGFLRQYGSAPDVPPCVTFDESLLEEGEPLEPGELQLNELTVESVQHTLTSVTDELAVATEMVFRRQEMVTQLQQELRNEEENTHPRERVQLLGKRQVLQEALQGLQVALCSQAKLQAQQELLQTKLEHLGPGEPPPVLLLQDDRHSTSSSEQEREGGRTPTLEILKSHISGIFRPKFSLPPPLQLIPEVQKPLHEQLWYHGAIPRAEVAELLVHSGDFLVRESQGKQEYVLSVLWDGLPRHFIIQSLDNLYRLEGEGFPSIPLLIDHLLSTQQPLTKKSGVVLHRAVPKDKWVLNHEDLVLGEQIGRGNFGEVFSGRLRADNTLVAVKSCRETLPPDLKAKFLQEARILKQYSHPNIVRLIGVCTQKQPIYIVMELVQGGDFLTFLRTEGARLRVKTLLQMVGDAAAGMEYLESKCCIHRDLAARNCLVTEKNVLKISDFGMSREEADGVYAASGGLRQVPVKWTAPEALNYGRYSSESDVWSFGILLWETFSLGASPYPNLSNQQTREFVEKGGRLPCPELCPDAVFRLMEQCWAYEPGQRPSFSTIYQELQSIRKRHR

Fyn = Fyn (UniProt P06241); experiment: as above
Chain of Fyn (P06241 whole entry, looked up): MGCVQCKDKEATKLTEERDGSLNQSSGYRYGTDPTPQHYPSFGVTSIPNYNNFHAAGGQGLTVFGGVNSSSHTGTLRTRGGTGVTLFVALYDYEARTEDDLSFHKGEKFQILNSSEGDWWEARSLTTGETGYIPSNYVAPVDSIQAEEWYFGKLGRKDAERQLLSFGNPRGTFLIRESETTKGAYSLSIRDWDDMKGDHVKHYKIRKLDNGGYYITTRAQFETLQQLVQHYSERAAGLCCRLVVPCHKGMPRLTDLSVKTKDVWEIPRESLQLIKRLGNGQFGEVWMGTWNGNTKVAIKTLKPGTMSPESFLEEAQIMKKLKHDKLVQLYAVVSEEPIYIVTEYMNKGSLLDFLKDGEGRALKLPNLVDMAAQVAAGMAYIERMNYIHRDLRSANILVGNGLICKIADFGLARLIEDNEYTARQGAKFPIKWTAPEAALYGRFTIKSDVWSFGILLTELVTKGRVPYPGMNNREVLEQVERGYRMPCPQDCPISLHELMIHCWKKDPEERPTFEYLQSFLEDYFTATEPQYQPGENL

Hck = Hck (UniProt P08631); experiment: as above
Jak2 = Jak2 (UniProt O60674); experiment: as above
MERTK = MERTK (UniProt Q12866); experiment: as above
Chain of MERTK (Q12866 whole entry, looked up): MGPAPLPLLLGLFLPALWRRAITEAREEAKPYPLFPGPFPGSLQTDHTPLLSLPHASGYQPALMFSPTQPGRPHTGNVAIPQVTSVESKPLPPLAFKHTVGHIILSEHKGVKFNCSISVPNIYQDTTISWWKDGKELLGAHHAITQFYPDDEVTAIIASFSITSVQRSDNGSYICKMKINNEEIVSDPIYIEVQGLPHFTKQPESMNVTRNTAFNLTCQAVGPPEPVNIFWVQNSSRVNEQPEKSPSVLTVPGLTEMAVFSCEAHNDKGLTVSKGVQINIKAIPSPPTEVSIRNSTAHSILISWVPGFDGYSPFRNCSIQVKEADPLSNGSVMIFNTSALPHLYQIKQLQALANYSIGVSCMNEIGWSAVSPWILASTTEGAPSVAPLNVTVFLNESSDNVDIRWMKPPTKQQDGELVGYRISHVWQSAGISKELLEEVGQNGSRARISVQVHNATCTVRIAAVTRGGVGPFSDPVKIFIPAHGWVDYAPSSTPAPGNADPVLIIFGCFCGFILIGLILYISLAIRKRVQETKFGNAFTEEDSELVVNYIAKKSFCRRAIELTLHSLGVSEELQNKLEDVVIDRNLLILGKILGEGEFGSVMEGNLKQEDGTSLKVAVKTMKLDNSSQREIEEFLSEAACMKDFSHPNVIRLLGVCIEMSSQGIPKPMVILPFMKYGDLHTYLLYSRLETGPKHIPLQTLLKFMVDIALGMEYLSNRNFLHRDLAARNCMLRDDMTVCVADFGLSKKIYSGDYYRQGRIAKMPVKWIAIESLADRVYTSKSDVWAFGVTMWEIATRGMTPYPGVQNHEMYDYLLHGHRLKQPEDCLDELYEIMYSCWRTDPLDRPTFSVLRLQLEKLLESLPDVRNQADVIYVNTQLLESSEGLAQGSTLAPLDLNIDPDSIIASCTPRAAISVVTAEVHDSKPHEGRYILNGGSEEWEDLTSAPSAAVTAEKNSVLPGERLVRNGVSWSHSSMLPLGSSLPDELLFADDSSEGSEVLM

c-Abl (mouse) = experiment: as above
c-Src = experiment: as above
Grb2 SH2 = Grb2 SH2 (UniProt P62993); experiment: SH2 binding enrichment of the phosphorylated peptide, bacterial display (enrichment ratio); higher = better substrate or ligand; peptides without Tyr show the background
SHP2-C SH2 = experiment: as above
c-Src SH2 = experiment: as above
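For SH2 binding enrichment of the phosphorylated peptide, bacterial display in this document: peptide library displayed on the E. coli surface as eCPX fusions, selected cells deep-sequenced, score is each peptide's frequency after selection divided by its frequency in the input.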
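For phosphorylation enrichment, bacterial display in this document: 11-residue human phosphosite peptides and single-mutation variants displayed on the E. coli surface, counted by deep sequencing, each peptide's frequency after selection divided by its frequency in the unselected input library; frequency after pTyr selection over input frequency; kinase dosed for 20-30% of maximal phosphorylation in three min.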

Chain of EPHB2 (P29323 whole entry, looked up): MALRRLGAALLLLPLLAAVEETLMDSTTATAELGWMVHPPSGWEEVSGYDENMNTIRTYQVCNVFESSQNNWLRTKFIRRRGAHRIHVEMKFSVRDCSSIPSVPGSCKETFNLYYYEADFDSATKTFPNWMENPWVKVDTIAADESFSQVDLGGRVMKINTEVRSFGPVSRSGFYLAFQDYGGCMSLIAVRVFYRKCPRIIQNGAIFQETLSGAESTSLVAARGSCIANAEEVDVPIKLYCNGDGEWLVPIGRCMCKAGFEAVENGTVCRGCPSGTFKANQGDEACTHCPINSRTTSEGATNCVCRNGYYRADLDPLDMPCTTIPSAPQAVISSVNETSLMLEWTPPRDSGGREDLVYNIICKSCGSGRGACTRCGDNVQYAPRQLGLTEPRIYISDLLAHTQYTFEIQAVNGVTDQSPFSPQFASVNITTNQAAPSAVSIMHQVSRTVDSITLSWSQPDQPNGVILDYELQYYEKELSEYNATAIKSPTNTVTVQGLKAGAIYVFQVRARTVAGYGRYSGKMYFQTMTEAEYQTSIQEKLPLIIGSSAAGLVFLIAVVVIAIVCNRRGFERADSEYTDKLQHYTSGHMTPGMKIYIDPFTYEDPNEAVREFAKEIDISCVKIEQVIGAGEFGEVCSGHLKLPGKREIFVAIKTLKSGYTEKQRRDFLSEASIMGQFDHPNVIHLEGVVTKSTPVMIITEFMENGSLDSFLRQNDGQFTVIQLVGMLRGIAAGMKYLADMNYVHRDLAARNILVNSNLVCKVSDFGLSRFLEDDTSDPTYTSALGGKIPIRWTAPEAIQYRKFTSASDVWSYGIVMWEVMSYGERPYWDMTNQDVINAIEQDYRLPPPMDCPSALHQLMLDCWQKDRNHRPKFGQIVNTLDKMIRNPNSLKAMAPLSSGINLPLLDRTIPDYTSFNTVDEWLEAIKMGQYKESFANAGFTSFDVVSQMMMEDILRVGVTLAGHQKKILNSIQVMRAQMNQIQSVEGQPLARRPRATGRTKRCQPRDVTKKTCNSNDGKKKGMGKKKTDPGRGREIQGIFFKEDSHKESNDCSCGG

Row | Sequence | SH2 binding enrichment (Grb2 SH2) | SH2 binding enrichment (SHP2-C SH2) | SH2 binding enrichment (c-Src SH2) | phosphorylation enrichment (AncSZ) | phosphorylation enrichment (EPHB1) | phosphorylation enrichment (EPHB2) | phosphorylation enrichment (FGFR1) | phosphorylation enrichment (FGFR3) | phosphorylation enrichment (Fer (mouse)) | phosphorylation enrichment (Fes) | phosphorylation enrichment (Fyn) | phosphorylation enrichment (Hck) | phosphorylation enrichment (Jak2) | phosphorylation enrichment (MERTK) | phosphorylation enrichment (c-Abl (mouse)) | phosphorylation enrichment (c-Src)
1 | GHLFAYDWISI [BEST1_Y227_YF] | 1.36 | 1.16 | 1.09 | 1.25 | 0.938 | 0.823 | 2.76 | 1.74 | 15.1 | 1.48 | 0.894 | 1.4 | 0.707 | 6.92 | 0.526 | 0.915
2 | GHPFAYDWISI [BEST1_Y227_L224P_YF] | 1.36 | 0.869 | 1.72 | 1.04 | 0.932 | 0.721 | 2.03 | 1.29 | 14.7 | 1.22 | 0.478 | 0.811 | 0.774 | 6.57 | 0.562 | 0.629
3 | GIKAAYEAERG [LMNA_Y81_L85R] | 0.83 | 0.685 | 0.553 | 0.566 | 0.344 | 0.363 | 0.403 | 0.487 | 0.365 | 0.755 | 0.329 | 0.406 | 0.517 | 0.347 | 0.475 | 0.344
4 | GIVEDYRPPLF [ACVRL1_Y421_F425L_YF] | 0.801 | 0.671 | 0.349 | 0.841 | 0.442 | 0.418 | 0.434 | 0.722 | 0.406 | 0.904 | 0.458 | 0.343 | 0.626 | 0.377 | 0.511 | 0.373
5 | GIVEEYQLPFF [BMPR1A_Y453_YF] | 0.799 | 0.629 | 0.438 | 3.31 | 0.599 | 0.724 | 0.812 | 0.822 | 0.587 | 1.35 | 0.591 | 0.604 | 1.34 | 0.588 | 2.24 | 0.746
6 | GLNKGYRMVVN [HINT1_Y94] | 0.665 | 0.503 | 0.424 | 0.531 | 0.307 | 0.392 | 0.388 | 0.449 | 0.318 | 0.696 | 0.375 | 0.436 | 0.403 | 0.303 | 0.461 | 0.34
7 | GLPINYTTRRI [LAMA2_Y2894] | 0.62 | 0.58 | 0.325 | 0.499 | 0.323 | 0.441 | 0.565 | 0.415 | 0.557 | 0.534 | 0.549 | 0.569 | 0.468 | 0.599 | 0.404 | 0.611
8 | GMRHGYGVRQS [JPH2_Y141] | 1.53 | 1.41 | 1.15 | 0.451 | 0.38 | 0.373 | 0.355 | 0.405 | 0.328 | 0.556 | 0.369 | 0.36 | 0.457 | 0.384 | 0.668 | 0.326
9 | GNHISYYQSDG [CACNA1C_Y1757_V1755I] | 0.885 | 0.751 | 2.32 | 0.821 | 0.668 | 0.4 | 0.655 | 0.569 | 0.367 | 0.569 | 0.514 | 0.397 | 0.484 | 0.411 | 0.403 | 0.496
10 | GNHVSYFQSDG [CACNA1C_Y1757_YF] | 0.84 | 0.706 | 0.618 | 0.656 | 0.373 | 0.427 | 0.495 | 0.488 | 0.369 | 0.791 | 0.458 | 0.445 | 0.636 | 0.443 | 0.517 | 0.42
11 | GPQGFYSNKLV [PTPN14_Y506_V505F] | 0.792 | 0.708 | 0.465 | 0.529 | 0.307 | 0.387 | 0.369 | 0.406 | 0.409 | 0.441 | 0.348 | 0.393 | 0.445 | 0.641 | 0.586 | 0.45
12 | GREEFYVHYVG [KAT8_Y90] | 0.81 | 2.83 | 0.644 | 1.16 | 0.583 | 0.67 | 0.711 | 1.02 | 0.428 | 1.16 | 0.518 | 0.563 | 1.02 | 0.422 | 0.788 | 0.486

Continued, in another order:

Row | SH2 binding enrichment (Grb2 SH2) | SH2 binding enrichment (SHP2-C SH2) | SH2 binding enrichment (c-Src SH2) | Sequence | phosphorylation enrichment (AncSZ) | phosphorylation enrichment (EPHB1) | phosphorylation enrichment (EPHB2) | phosphorylation enrichment (FGFR1) | phosphorylation enrichment (FGFR3) | phosphorylation enrichment (Fer (mouse)) | phosphorylation enrichment (Fes) | phosphorylation enrichment (Fyn) | phosphorylation enrichment (Hck) | phosphorylation enrichment (Jak2) | phosphorylation enrichment (MERTK) | phosphorylation enrichment (c-Abl (mouse)) | phosphorylation enrichment (c-Src)
13 | 0.845 | 0.44 | 5.46 | GIMEEYQLPYY [BMPR1A_Y453_V450M] | 5.83 | 0.748 | 0.795 | 2.23 | 1.57 | 0.942 | 1.4 | 1.4 | 0.998 | 1.28 | 0.398 | 1.25 | 3.76
14 | 1.05 | 0.612 | 0.593 | GLRFGYGGLGG [KRTAP20-2_Y15_V17G_YF] | 0.655 | 0.455 | 0.467 | 0.509 | 0.53 | 0.368 | 0.739 | 0.394 | 0.376 | 0.581 | 0.456 | 0.455 | 0.419
15 | 0.984 | 0.767 | 0.53 | GQLIVYAPPEW [CNTN6_Y315_F314V] | 1.02 | 0.574 | 1.66 | 0.513 | 0.665 | 0.619 | 0.985 | 1.81 | 2.22 | 0.932 | 1.37 | 9.23 | 1.75
16 | 0.835 | 0.846 | 0.531 | GRLFAYPDTHC [CAT_Y358_R363C] | 0.784 | 0.556 | 0.512 | 0.466 | 0.687 | 0.479 | 1.05 | 0.466 | 0.481 | 0.785 | 0.432 | 0.75 | 0.403
17 | 0.966 | 0.682 | 0.607 | GRQGIYTENER [GPR143_Y231] | 0.724 | 0.496 | 0.427 | 0.464 | 0.62 | 0.466 | 0.951 | 0.511 | 0.439 | 0.548 | 0.456 | 0.581 | 0.581
